This passage reports fold binding over GFP control cells and response results from paper PMC8780415.

Common to all, as to assay: flow cytometry on cells
For orientation: Flow cytometry measures light scatter and fluorescence of single cells or particles in a stream.

For experiment [1], the target named is NTCP-GFP fusion protein (sodium taurocholate cotransporting polypeptide) (UniProt Q14973).
In experiment [2] the target is SR-B1-GFP fusion protein (scavenger receptor class B type 1) (UniProt Q8WTV0).
Experiment [3] has as its target Biotinylated Myr47 (myristoylated pre-S1 peptide). As to conditions: HEK293T cells transiently transfected; GFP+ gate; 10,000 cells; triplicate assays; mean and standard error; Myr47 binding examined at 4 °C; parent: est. 13; read off a plot.

UniProt Q8WTV0, sequence (Q8WTV0 whole entry, the tested form may be a part): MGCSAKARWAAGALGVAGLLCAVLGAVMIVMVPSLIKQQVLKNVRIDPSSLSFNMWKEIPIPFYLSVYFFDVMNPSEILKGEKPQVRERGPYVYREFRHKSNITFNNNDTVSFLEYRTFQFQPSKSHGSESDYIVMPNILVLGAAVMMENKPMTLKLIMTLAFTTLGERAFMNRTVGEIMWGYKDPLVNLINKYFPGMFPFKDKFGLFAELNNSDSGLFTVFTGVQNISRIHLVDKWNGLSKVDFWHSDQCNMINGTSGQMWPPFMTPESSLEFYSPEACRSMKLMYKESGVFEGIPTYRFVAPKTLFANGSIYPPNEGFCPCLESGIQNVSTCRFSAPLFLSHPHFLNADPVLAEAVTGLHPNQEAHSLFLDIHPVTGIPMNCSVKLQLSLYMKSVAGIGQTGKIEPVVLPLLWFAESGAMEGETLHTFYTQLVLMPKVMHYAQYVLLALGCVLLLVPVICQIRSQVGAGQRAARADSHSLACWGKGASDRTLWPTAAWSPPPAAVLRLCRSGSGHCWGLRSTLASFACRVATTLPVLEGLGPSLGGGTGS
UniProt Q14973, sequence (Q14973 whole entry, the tested form may be a part): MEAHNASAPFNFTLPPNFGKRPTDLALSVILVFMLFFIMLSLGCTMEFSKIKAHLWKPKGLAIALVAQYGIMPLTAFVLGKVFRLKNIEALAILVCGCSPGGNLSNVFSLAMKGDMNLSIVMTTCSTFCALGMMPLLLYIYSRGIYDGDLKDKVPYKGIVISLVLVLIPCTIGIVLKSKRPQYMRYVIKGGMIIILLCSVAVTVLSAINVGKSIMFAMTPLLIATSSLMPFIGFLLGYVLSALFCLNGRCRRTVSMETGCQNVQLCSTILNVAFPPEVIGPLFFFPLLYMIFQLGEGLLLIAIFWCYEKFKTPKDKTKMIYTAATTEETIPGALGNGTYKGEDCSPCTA

Regarding “Biotinylated Myr47 (myristoylated pre-S1 peptide)”, the fold binding over GFP control cells in experiment [1] came to 3.4 fold; in experiment [2] it was 2.8 fold.
Turning to “SR-B1-GFP fusion protein (scavenger receptor class B type 1) (from UniProt Q8WTV0) K151A”, in experiment [3], the response came to 10 FI × 10^3.
Same read-out and setting: with “SR-B1-GFP fusion protein (scavenger receptor class B type 1) (from UniProt Q8WTV0) K156A” the figure was 5.8 FI × 10^3; with “SR-B1-GFP fusion protein (scavenger receptor class B type 1) (from UniProt Q8WTV0) M441A; L448A; L455A”, 10 FI × 10^3.
Same read-out and setting: with “SR-B1-GFP fusion protein (scavenger receptor class B type 1) (from UniProt Q8WTV0) S112F” the figure was 5.3 FI × 10^3; with “SR-B1-GFP fusion protein (scavenger receptor class B type 1) (from UniProt Q8WTV0) T175A”, 5.7 FI × 10^3.
For “Yeast-derived nanoparticles containing L protein (bio-nanocapsules, BNCs)”, in experiment [2], the fold binding over GFP control cells was found to be 9.2 fold.
